Reference: patent US20180155451A1 (published 2018)
Where a chain is given by its changes, count along the chain named. Numbers in names are those of the source. Where two headings read alike, the source gives them in different places. Values belong to the binder of their own block, whether it stands above or below them.

Assays:
FcgRIIaR [1] = molecular target: T1, FcgRIIaR (human, UniProt P12318 34-217); test: SPR (Biacore), antibody captured on chip, FcgR as analyte
T1 construct: extracellular domain; R131 allotype; also called FcγRIIa R; FcgRIIa type R; not shown: C-terminal His tag
T1 sequence (looked up): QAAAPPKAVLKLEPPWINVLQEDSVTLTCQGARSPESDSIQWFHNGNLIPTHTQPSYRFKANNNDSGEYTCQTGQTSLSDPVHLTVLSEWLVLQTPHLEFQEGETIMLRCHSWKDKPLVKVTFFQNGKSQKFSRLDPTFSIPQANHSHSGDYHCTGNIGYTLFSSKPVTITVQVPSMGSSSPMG
Description: (§1) The variants described above were assessed for their binding to FcgR according to the method described in Reference Example 8.
(§2) Analysis of interaction between obj ective antibody and the FcγR was carried out using Biacore T100 (GE Healthcare), Biacore T200, Biacore A100, and Biacore 4000. HBS-EP+ (GE Healthcare) was used as the running buffer, and the measurement temperature was set to 25° C. Chips produced by immobilizing the antigen peptide by the amine coupling method to a Series S sensor Chip CM5 (GE Healthcare), chips produced by allowing preliminarily biotinylated antigen peptides to interact with and immobilize onto a Series S Sensor Chip SA (certified) (GE Healthcare), chips produced by immobilizing Protein L (ACTIGEN, BioVision) to Series S Sencor Chip CM5 (GE Healthcare), or chips produced by immobilizing Protein A/G (Thermo Scientific) to Series S Sencor Chip CM5 (GE Healthcare) were used. Antibodies of interest were captured onto these chips, and allowed to interact to each FcγR diluted with running buffer. To regenerate and repeatedly use the chip, the antibodies captured onto the chip were washed off by reacting 10 mM glycine-HCl, pH 1.5.

FcgRIIb [2] = molecular target: T2, FcgRIIb (human, UniProt P31994 43-217); test: as above
T2 construct: extracellular domain; also called FcγRIIb; CD32B; not shown: C-terminal His tag
T2 sequence (looked up): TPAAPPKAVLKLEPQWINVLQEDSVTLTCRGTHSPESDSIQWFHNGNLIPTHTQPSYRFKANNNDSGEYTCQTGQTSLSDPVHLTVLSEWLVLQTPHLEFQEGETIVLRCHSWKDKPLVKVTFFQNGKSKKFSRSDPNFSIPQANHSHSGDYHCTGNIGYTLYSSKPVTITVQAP
Description: as §1, §2

FcgRIIIaV [3] = molecular target: T3, FcgRIIIaV (human, UniProt P08637 17-208); test: as above
T3 construct: extracellular domain; V158 allotype; also called FcγRIIIa V; not shown: C-terminal His tag
T3 sequence (P08637 17-208 F176V limits assumed): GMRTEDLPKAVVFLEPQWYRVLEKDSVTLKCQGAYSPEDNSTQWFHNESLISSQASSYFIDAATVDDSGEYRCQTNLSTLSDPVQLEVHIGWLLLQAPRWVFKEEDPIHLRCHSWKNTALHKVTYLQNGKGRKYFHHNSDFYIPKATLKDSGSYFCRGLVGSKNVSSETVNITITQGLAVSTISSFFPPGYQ
Description: as §1, §2

FcgRIIIaF [4] = molecular target: T4, FcgRIIIaF (human, UniProt P08637 17-208); test: as above
T4 construct: extracellular domain; F158 allotype; also called FcγRIIIa F; not shown: C-terminal His tag
T4 sequence (P08637 17-208): as the sequence (P08637 17-208 F176V limits assumed) above, with V160F counted along it
Description: as §1, §2

FcgRIa [5] = molecular target: T5, FcgRIa (human, UniProt P12314 16-292); test: as above
T5 construct: extracellular domain; also called FcγRIa; FcγRI; not shown: C-terminal His tag
T5 sequence (P12314 16-292): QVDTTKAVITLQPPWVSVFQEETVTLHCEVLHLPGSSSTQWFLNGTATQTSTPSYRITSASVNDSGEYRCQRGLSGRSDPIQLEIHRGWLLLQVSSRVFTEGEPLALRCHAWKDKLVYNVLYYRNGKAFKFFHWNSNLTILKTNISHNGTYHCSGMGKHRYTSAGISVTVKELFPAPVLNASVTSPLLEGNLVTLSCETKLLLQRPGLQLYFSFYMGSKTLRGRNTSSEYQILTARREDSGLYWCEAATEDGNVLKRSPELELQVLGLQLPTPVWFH
Description: as §1, §2

FcgRIIaH [6] = molecular target: T6, FcgRIIaH (human, UniProt P12318 34-217); test: as above
T6 construct: extracellular domain; H131 allotype; also called FcγRIIa H; FcgRIIa type H; not shown: C-terminal His tag
T6 sequence (looked up): T1 sequence (looked up) with R134H
Description: as §1, §2

FcgRIIaR [7] = molecular target: T1, FcgRIIaR; test: SPR (Biacore); KD of H240-Kn120/H240-Hl068/L73-k0 divided by KD of the sample
Description: as §1, §2

FcgRIIb [8] = molecular target: T2, FcgRIIb; test: as above
Description: as §1, §2

FcgRIIIaV [9] = molecular target: T3, FcgRIIIaV; test: as above
Description: as §1, §2

FcgRIIIaF [10] = molecular target: T4, FcgRIIIaF; test: as above
Description: as §1, §2

FcgRIIaH [11] = molecular target: T6, FcgRIIaH; test: as above
Description: as §1, §2

FcgRIIaR [12] = molecular target: T1, FcgRIIaR; test: as above; remark: listed apart in the source
Description: (§3) The variants described above were assessed for their binding to FcγR according to the method described in Reference Example 8.
as §2

FcgRIIb [13] = molecular target: T2, FcgRIIb; test: as above; remark: listed apart in the source
Description: as §3, §2

FcgRIIIaV [14] = molecular target: T3, FcgRIIIaV; test: as above; remark: listed apart in the source
Description: as §3, §2

FcgRIIIaF [15] = molecular target: T4, FcgRIIIaF; test: as above; remark: listed apart in the source
Description: as §3, §2

FcgRIIaH [16] = molecular target: T6, FcgRIIaH; test: as above; remark: listed apart in the source
Description: as §3, §2

FcgRIIaR [17] = molecular target: T1, FcgRIIaR; test: SPR (Biacore), antibody captured on chip, FcgR as analyte; remark: listed apart in the source
Description: as §3, §2

FcgRIIb [18] = molecular target: T2, FcgRIIb; test: as above; remark: listed apart in the source
Description: as §3, §2

FcgRIIIaV [19] = molecular target: T3, FcgRIIIaV; test: as above; remark: listed apart in the source
Description: as §3, §2

FcgRIIIaF [20] = molecular target: T4, FcgRIIIaF; test: as above; remark: listed apart in the source
Description: as §3, §2

FcgRIa [21] = molecular target: T5, FcgRIa; test: as above; remark: listed apart in the source
Description: as §3, §2

FcgRIIaH [22] = molecular target: T6, FcgRIIaH; test: as above; remark: listed apart in the source
Description: as §3, §2

Kd (FcgRIIaR [1]): 20 nM | Kd (FcgRIIb [2]): 150 nM | Kd (FcgRIIIaV [3]): 0.36 nM | Kd (FcgRIIIaF [4]): 2.2 nM | Kd (FcgRIa [5]): 0.16 nM | Kd (FcgRIIaH [6]): 41 nM | Relative KD (FcgRIIaR [7]): 1 | Relative KD (FcgRIIb [8]): 1 | Relative KD (FcgRIIIaV [9]): 1 | Relative KD (FcgRIIIaF [10]): 1 | Relative KD (FcgRIIaH [11]): 1 | Relative KD (FcgRIIaR [12]): 1 | Relative KD (FcgRIIb [13]): 1 | Relative KD (FcgRIIIaV [14]): 1 | Relative KD (FcgRIIIaF [15]): 1 | Relative KD (FcgRIIaH [16]): 1 | Kd (FcgRIIaR [17]): 20 nM | Kd (FcgRIIb [18]): 150 nM | Kd (FcgRIIIaV [19]): 0.36 nM | Kd (FcgRIIIaF [20]): 2.2 nM | Kd (FcgRIa [21]): 0.16 nM | Kd (FcgRIIaH [22]): 41 nM
B1: H240-Kn120/H240-Hl068/L73-k0 (antibody, human IgG1, kappa)
heavy 1: QDQLVQSGAEVKKPGASVKVSCKASGFNIKDTYIQWVRQAPGQGLEWMGRIDPLRKQTKYREKFEGRVTITADTSTNTAYMELSSLRSEDTAVYYCVRSGREFDYWGQGTLVTVSSASTKGPSVFPLAPSSKSTSGGTAALGCLVKDYFPEPVTVSWNSGALTSGVHTFPAVLQSSGLYSLSSVVTVPSSSLGTQTYICNVNHKPSNTKVDKKVEPKSCDKTHTCPPCPAPEYYWGPMVFLFPPKPKDTLMISRTPEVTCVVVDVSDEDPEVKFNWYVDGVEVHNAKTKPREEQYNATYRVVSVLTVLHQDWLNGKEYKCKVSNKDLPAPIEKTISKAKGQPREPQVCTLPPSRDELTKNQVSLWCLVKGFYPSDIAVEWESNGQPENNYKTTPPVLDSDGSFFLYSKLTVDKSRWQQGNVFSCSVMHEALHNHYTQKSLSLSP
heavy 2: QDQLVQSGAEVKKPGASVKVSCKASGFNIKDTYIQWVRQAPGQGLEWMGRIDPLRKQTKYREKFEGRVTITADTSTNTAYMELSSLRSEDTAVYYCVRSGREFDYWGQGTLVTVSSASTKGPSVFPLAPSSKSTSGGTAALGCLVKDYFPEPVTVSWNSGALTSGVHTFPAVLQSSGLYSLSSVVTVPSSSLGTQTYICNVNHKPSNTKVDKKVEPKSCDKTHTCPPCPAPELLGGPSVFLFPPKPKDTLMISRTPEVTCVVVDVSHEEPEVKFNWYVDGVEVHNAKTKPREEQYNSTYRVVSVLTVLHQDWLNGKEYKCKVSNDALPKPIEETISKAKGQPREPQVYTLPPSRCELTKNQVSLSCAVKGFYPSDIAVEWESNGQPENNYKTTPPVLDSDGSFFLVSKLTVDKSRWQQGNVFSCSVMHEALHNHYTQKSLSLSP
light: DIQMTQSPSSLSASVGDRVTITCRASQDIHKYIAWYQQKPGQAPRLLIQYTSTLQPGVPSRFSGSGSGTDYTFTISSLQPEDIATYYCLQYEQLRTFGGGTKVEIKRTVAAPSVFIFPPSDEQLKSGTASVVCLLNNFYPREAKVQWKVDNALQSGNSQESVTEQDSKDSTYSLSSTLTLSKADYEKHKVYACEVTHQGLSSPVTKSFNRGEC
notes: Heterodimerized anti-epiregulin IgG1-type antibody (knobs-into-holes); also called H240-Kn120/H240-HI068/L73-k0

Kd (FcgRIIaR [1]): 14 nM | Kd (FcgRIIb [2]): 190 nM | Kd (FcgRIIIaV [3]): 5.4 nM | Kd (FcgRIIIaF [4]): 12 nM | Kd (FcgRIa [5]): 0.18 nM | Kd (FcgRIIaH [6]): 41 nM | Relative KD (FcgRIIaR [7]): 1.4 | Relative KD (FcgRIIb [8]): 0.8 | Relative KD (FcgRIIIaV [9]): 0.1 | Relative KD (FcgRIIIaF [10]): 0.2 | Relative KD (FcgRIIaH [11]): 1 | Relative KD (FcgRIIaR [12]): 1.4 | Relative KD (FcgRIIb [13]): 0.8 | Relative KD (FcgRIIIaV [14]): 0.1 | Relative KD (FcgRIIIaF [15]): 0.2 | Relative KD (FcgRIIaH [16]): 1 | Kd (FcgRIIaR [17]): 14 nM | Kd (FcgRIIb [18]): 190 nM | Kd (FcgRIIIaV [19]): 5.4 nM | Kd (FcgRIIIaF [20]): 12 nM | Kd (FcgRIa [21]): 0.18 nM | Kd (FcgRIIaH [22]): 41 nM
B2: H240-Kn120/H240-Hl089/L73-k0 (antibody, human IgG1, kappa)
heavy 1: B1 heavy 1
heavy 2: B1 heavy 2 with G235T
light: B1 light
notes: Heterodimerized anti-epiregulin antibody; G236T in the Hl068 chain; also called H240-Kn120/H240-HI089/L73-k0

Relative KD (FcgRIIaR [12]): 1.3 | Relative KD (FcgRIIb [13]): 0.4 | Relative KD (FcgRIIIaV [14]): 0 | Relative KD (FcgRIIIaF [15]): 0.1 | Relative KD (FcgRIIaH [16]): 1.1 | Kd (FcgRIIaR [17]): 16 nM | Kd (FcgRIIb [18]): 380 nM | Kd (FcgRIIIaV [19]): 14 nM | Kd (FcgRIIIaF [20]): 24 nM | Kd (FcgRIa [21]): 0.27 nM | Kd (FcgRIIaH [22]): 38 nM
B3: H240-Kn180/H240-Hl089/L73-k0 (antibody, human IgG1, kappa)
heavy 1: B1 heavy 1 with E293R
heavy 2: B1 heavy 2 with G235T
light: B1 light
notes: Heterodimerized anti-epiregulin antibody; E294K in one chain, G236T in the other
